Data published in US20240336947.

Target: deglucosylated type IV collagen

B1: R699, mimiviral collagen galactosylhydroxylysyl glucosyltransferase (GGT) (protein)
chain: MEQSNNDDNLLVLGIGISVHKTDGVLRFEKYCQAHNLQYMIVGEGKKWNGGNLESEAGGGQKINELLIALESIKDNKLIVVCDTYDLIPLSGPEEILRKYRFLTPDNKVVFSSELYCWPDASLVERYPKVDTKYKYLNSGAFMGYRDDIYEMIKNGVKDRDDDQLFFSIKFIETDKIVLDYKCELFQAMYRCNSDLVVHKNRIFNGYTNSYPVFAHGNGPAKKLLNHMEGYFMTEPIDGSSNTINTFKLDNEPKVFFALYVDSNDLSALKQFLGKVASIQYGNKVIYLYDRSDNEQNRKLIQISYPNYHTGVTKYVFDDFKKSDAQFYFLLEQNCIITKKDILHELIMQVKDNHRVISPMIGYEQNSTRTNFWGDIEDGYYKRSENYLDLAKHKVRGLWNVPYVYGVILMHESVVRNWDLSMVKYNDKDMDLCFSLRKHTIFMYMINNNNYGYMV
  glucosylation of type IV collagen detected by LC-MS with UDP-[UL-13C6]-glucose: R699 (FIG. 4C,4D) glucosylates collagen peptidyl galactosylhydroxylysine to [13C6]-glucosylgalactosylhydroxylysine
